The target of assay [1] is M2 protein of influenza A/Japan/305/57 (H2N2), on inactivated whole virions (influenza A virus A/Japan/305/57 (H2N2)). The experiment in a line: ELISA, positive control antibody on inactivated whole virions.
The target of assay [2] is recombinant soluble homotrimeric HA of A/common magpie/Hong Kong/5052/07 (H5N1) (Influenza A virus A/common magpie/Hong Kong/5052/2007 (H5N1)). As to the kind of experiment: HA microarray, control mAb.

TCN-032 (8I10) (antibody), sequence (VH): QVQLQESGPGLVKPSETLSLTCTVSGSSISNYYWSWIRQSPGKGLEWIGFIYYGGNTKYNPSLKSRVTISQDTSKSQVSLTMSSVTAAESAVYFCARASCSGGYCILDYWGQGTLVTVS
TCN-032 (8I10) (antibody), sequence (VL): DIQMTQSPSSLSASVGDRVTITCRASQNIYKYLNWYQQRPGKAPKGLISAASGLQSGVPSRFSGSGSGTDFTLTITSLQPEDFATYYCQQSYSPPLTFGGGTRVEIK

In assay [1], TCN-032 (8I10) (antibody) had an ELISA virus binding (OD450) of 3.61 OD450.
Consider TCN-202 (2N9) (antibody), for which, in assay [2], the Trimeric HA Binding RLU is 162 RLU.

Source of the values: patent US20150104459A1.
